According to the RNAGym collection of RNA variant scans (doi:10.1073/pnas.2313332121):

B1: TPR t1 (parent)
chain: GACCAAUCUGCCCUCAGAGCUCGAGAACAUCUUCGGAUGCAGAGGAGGCAGGCUUCGGUGGCGCGAUAGCGCCAACGUCCUCAACCUCCAAUGCAUCCCACCACAUGAUGAUGCCUGAAGAGCCUUGGUUUUUUG

Variants of: B1
Experiment: polymerase ribozyme fitness, log enrichment relative to wild type (log ratio); higher = more active; in vitro selection for triplet polymerase activity
Procedure, shortened: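 The heterodimeric triplet polymerase ribozyme's subunits were each mutagenized into PCR-built libraries and transcribed. Every library was selected once, in triplicate, by annealing with a biotinylated primer, the partner subunit and triplets, incubating frozen at −7 °C, gel-excising extended constructs, capturing on streptavidin beads and running RT-PCR. Input and output libraries were Illumina-sequenced, with genotypes kept only at ≥10 input reads and ≥1 read per output. Fitness, from inverse-variance-weighted replicate averages, is the base-2 logarithm of genotype enrichment over wild-type enrichment.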

Row | Variant | polymerase ribozyme fitness (log ratio)
1 | C56G U87C | -0.336
2 | C56G U96A | -0.238
3 | C56G U96G U125A | -1.29
4 | C56G U125A | -1.54
5 | C56G U129C | -0.877
6 | C56U A75U C86U | -0.18
7 | C56U A83G | -0.676
8 | C56U A90C G110A A111G U132A | -0.678
9 | C56U A90G G93C | -1.38
10 | C56U A90G U125A | -0.318
11 | C56U A90G U132A | 0.308
12 | C56U A103U | -4.81
13 | C56U A111U | -1.9
14 | C56U C62G U112G | -5.4
15 | C56U C62U C101G U133A | -3.24
16 | C56U C64U | -1.54
17 | C56U C70A C115A G122A | -3.13
18 | C56U C70U U96A | -2.06
19 | C56U C72A | -0.0735
20 | C56U C72U | -0.11
21 | C56U C73A A100U | -1.12

Row | Variant | polymerase ribozyme fitness (log ratio)
22 | C56U C73G U96A U106A | -3.7
23 | C56U C73U | -0.755
24 | C56U C76A | -2.9
25 | C56U C80A C114U | -4.51
26 | C56U C80U | -1.17
27 | C56U C80U C101U A121C | 0.686
28 | C56U C82A G110C | -4.8
29 | C56U C82G U130C | -0.672
30 | C56U C82U C86A U112G U129C | -1.4
31 | C56U C86U C124U U131A | 1.32
32 | C56U C86U G117A | -1.37
33 | C56U C88U | -0.153
34 | C56U C88U C114A G120A | -1.81
35 | C56U C89A | -1.04
36 | C56U C101G | -2.07
37 | C56U C104U | 0.166
38 | C56U C114A G128A U133G | -4.81
39 | C56U C115A U133C | 1.27
40 | C56U C115G | -2.56
41 | C56U C124U U133G | 1.14
42 | C56U G57A C79G | -1.48

Row | Variant | polymerase ribozyme fitness (log ratio)
43 | C56U G60U U87A | -3.76
44 | C56U G61A | -4.41
45 | C56U G61C G117C | -4.62
46 | C56U G61U G93A A111U U116C | -4.78
47 | C56U G63U | -4.18
48 | C56U G71A | -2.84
49 | C56U G71U | -1.85
50 | C56U G77A C94U C102A | -2.87
51 | C56U G93A C97U U129A | -2.25
52 | C56U G113U G120A | -3.03
53 | C56U G117A | -1.46
54 | C56U G128A | -1.64
55 | C56U U59G A74G C102A G127U | -3.57
56 | C56U U67G G71A C80U G120C | -6.12
57 | C56U U92C | -0.619
58 | C56U U96A U106A | -0.662
59 | C56U U96G C101A G113C | -3.97
60 | C56U U106A | 0.0907
61 | C56U U112C G117C G120U G127C U132A | -4.94
62 | C56U U129A | -1.15
63 | C56U U130A | 0.174

Row | Variant | polymerase ribozyme fitness (log ratio)
64 | C56U U130C | 1.02
65 | C56U U131G | 0.127
66 | C56U U133A | -0.575
67 | G57A A75U U96C U131C | -1.53
68 | G57A A84C | -1.76
69 | G57A A95C | -1.81
70 | G57A A103G | -4.05
71 | G57A C73G U87G U125A | -1.37
72 | G57A C99U | -4.88
73 | G57A C104A | -2.92
74 | G57A C104U | -0.961
75 | G57A C115G | -2.25
76 | G57A G60A | -0.384
77 | G57A G61A C104U | -0.114
78 | G57A G63A | -2.04
79 | G57A G69U | -0.426
80 | G57A G77C | -2.28
81 | G57A G122C C123A U130C | -1.47
82 | G57A U59C G120C U132A | -0.265
83 | G57A U78C | -1.27
